Results published in the Human Domainome abundance scans (Beltran et al. 2025).
± gives the uncertainty stated by the source.

B1: Pyruvate dehydrogenase protein X component, mitochondrial, residues 181 to 227; numbered along this chain, O00330 (parent)
chain: RFRLSPAARNILEKHSLDASQGTATGPRGIFTKEDALKLVQLKQTGK

Variants of: B1
Assay: abundance fitness (aPCA) (normalised: wild type 0, dead -1); higher = more abundant; growth selection in yeast, the domain comes from the species named
Conditions: Homo sapiens
RFRGSPAARNILEKHSLDASQGTATGPRGIFTKEDALKLVQLKQTGK [L4G] gave an abundance fitness of -0.241 ± 0.044.
With RFRHSPAARNILEKHSLDASQGTATGPRGIFTKEDALKLVQLKQTGK [L4H] the abundance fitness was -0.758 ± 0.11.
Variant RFRISPAARNILEKHSLDASQGTATGPRGIFTKEDALKLVQLKQTGK [L4I] has an abundance fitness of 0.245 ± 0.074.
For RFRKSPAARNILEKHSLDASQGTATGPRGIFTKEDALKLVQLKQTGK [L4K], the abundance fitness was -0.09 ± 0.082.
With RFRMSPAARNILEKHSLDASQGTATGPRGIFTKEDALKLVQLKQTGK [L4M] the abundance fitness was -0.008 ± 0.062.
For RFRNSPAARNILEKHSLDASQGTATGPRGIFTKEDALKLVQLKQTGK [L4N], the abundance fitness was 0.049 ± 0.092.
For RFRPSPAARNILEKHSLDASQGTATGPRGIFTKEDALKLVQLKQTGK [L4P], the abundance fitness was -0.333 ± 0.051.
With RFRQSPAARNILEKHSLDASQGTATGPRGIFTKEDALKLVQLKQTGK [L4Q] the abundance fitness was -0.357 ± 0.083.
RFRRSPAARNILEKHSLDASQGTATGPRGIFTKEDALKLVQLKQTGK [L4R] showed an abundance fitness of -0.588 ± 0.058.
Work on RFRSSPAARNILEKHSLDASQGTATGPRGIFTKEDALKLVQLKQTGK [L4S] yielded an abundance fitness of -0.167 ± 0.062.
With RFRTSPAARNILEKHSLDASQGTATGPRGIFTKEDALKLVQLKQTGK [L4T] the abundance fitness was -0.204 ± 0.059.
For RFRYSPAARNILEKHSLDASQGTATGPRGIFTKEDALKLVQLKQTGK [L4Y], the abundance fitness was -0.131 ± 0.077.
Variant RFRLAPAARNILEKHSLDASQGTATGPRGIFTKEDALKLVQLKQTGK [S5A] has an abundance fitness of -0.257 ± 0.049.
Variant RFRLCPAARNILEKHSLDASQGTATGPRGIFTKEDALKLVQLKQTGK [S5C] has an abundance fitness of -0.608 ± 0.11.
Variant RFRLDPAARNILEKHSLDASQGTATGPRGIFTKEDALKLVQLKQTGK [S5D] has an abundance fitness of -0.098 ± 0.096.
Work on RFRLEPAARNILEKHSLDASQGTATGPRGIFTKEDALKLVQLKQTGK [S5E] yielded an abundance fitness of 0.081 ± 0.044.
RFRLGPAARNILEKHSLDASQGTATGPRGIFTKEDALKLVQLKQTGK [S5G] showed an abundance fitness of -0.564 ± 0.049.
RFRLHPAARNILEKHSLDASQGTATGPRGIFTKEDALKLVQLKQTGK [S5H] gave an abundance fitness of -0.795 ± 0.14.
RFRLIPAARNILEKHSLDASQGTATGPRGIFTKEDALKLVQLKQTGK [S5I] showed an abundance fitness of -0.135 ± 0.19.
Work on RFRLKPAARNILEKHSLDASQGTATGPRGIFTKEDALKLVQLKQTGK [S5K] yielded an abundance fitness of -0.61 ± 0.065.
RFRLLPAARNILEKHSLDASQGTATGPRGIFTKEDALKLVQLKQTGK [S5L] gave an abundance fitness of -0.725 ± 0.072.
In the case of RFRLMPAARNILEKHSLDASQGTATGPRGIFTKEDALKLVQLKQTGK [S5M], the abundance fitness is reported as -0.036 ± 0.062.
With RFRLNPAARNILEKHSLDASQGTATGPRGIFTKEDALKLVQLKQTGK [S5N] the abundance fitness was -0.327 ± 0.2.
RFRLQPAARNILEKHSLDASQGTATGPRGIFTKEDALKLVQLKQTGK [S5Q] showed an abundance fitness of -0.384 ± 0.097.
RFRLRPAARNILEKHSLDASQGTATGPRGIFTKEDALKLVQLKQTGK [S5R] showed an abundance fitness of -0.862 ± 0.057.
In the case of RFRLTPAARNILEKHSLDASQGTATGPRGIFTKEDALKLVQLKQTGK [S5T], the abundance fitness is reported as -0.032 ± 0.064.
RFRLVPAARNILEKHSLDASQGTATGPRGIFTKEDALKLVQLKQTGK [S5V] gave an abundance fitness of -0.621 ± 0.048.
Work on RFRLWPAARNILEKHSLDASQGTATGPRGIFTKEDALKLVQLKQTGK [S5W] yielded an abundance fitness of -1.01 ± 0.14.
For RFRLSAAARNILEKHSLDASQGTATGPRGIFTKEDALKLVQLKQTGK [P6A], the abundance fitness was 0.027 ± 0.058.
With RFRLSCAARNILEKHSLDASQGTATGPRGIFTKEDALKLVQLKQTGK [P6C] the abundance fitness was -0.004 ± 0.091.
RFRLSDAARNILEKHSLDASQGTATGPRGIFTKEDALKLVQLKQTGK [P6D] showed an abundance fitness of -0.091 ± 0.065.
In the case of RFRLSEAARNILEKHSLDASQGTATGPRGIFTKEDALKLVQLKQTGK [P6E], the abundance fitness is reported as 0.355 ± 0.064.
In the case of RFRLSFAARNILEKHSLDASQGTATGPRGIFTKEDALKLVQLKQTGK [P6F], the abundance fitness is reported as -0.35 ± 0.08.
For RFRLSGAARNILEKHSLDASQGTATGPRGIFTKEDALKLVQLKQTGK [P6G], the abundance fitness was -0.61 ± 0.048.
In the case of RFRLSHAARNILEKHSLDASQGTATGPRGIFTKEDALKLVQLKQTGK [P6H], the abundance fitness is reported as -0.367 ± 0.087.
In the case of RFRLSIAARNILEKHSLDASQGTATGPRGIFTKEDALKLVQLKQTGK [P6I], the abundance fitness is reported as -0.113 ± 0.046.
Work on RFRLSKAARNILEKHSLDASQGTATGPRGIFTKEDALKLVQLKQTGK [P6K] yielded an abundance fitness of 0.07 ± 0.077.
RFRLSLAARNILEKHSLDASQGTATGPRGIFTKEDALKLVQLKQTGK [P6L] gave an abundance fitness of -0.2 ± 0.046.
With RFRLSMAARNILEKHSLDASQGTATGPRGIFTKEDALKLVQLKQTGK [P6M] the abundance fitness was -0.23 ± 0.094.
RFRLSNAARNILEKHSLDASQGTATGPRGIFTKEDALKLVQLKQTGK [P6N] gave an abundance fitness of -0.053 ± 0.076.
RFRLSQAARNILEKHSLDASQGTATGPRGIFTKEDALKLVQLKQTGK [P6Q] gave an abundance fitness of -0.08 ± 0.091.
RFRLSRAARNILEKHSLDASQGTATGPRGIFTKEDALKLVQLKQTGK [P6R] gave an abundance fitness of 0.038 ± 0.046.
For RFRLSSAARNILEKHSLDASQGTATGPRGIFTKEDALKLVQLKQTGK [P6S], the abundance fitness was 0.041 ± 0.044.
With RFRLSTAARNILEKHSLDASQGTATGPRGIFTKEDALKLVQLKQTGK [P6T] the abundance fitness was -0.093 ± 0.073.
Variant RFRLSWAARNILEKHSLDASQGTATGPRGIFTKEDALKLVQLKQTGK [P6W] has an abundance fitness of -0.261 ± 0.062.
In the case of RFRLSYAARNILEKHSLDASQGTATGPRGIFTKEDALKLVQLKQTGK [P6Y], the abundance fitness is reported as -0.174 ± 0.067.
RFRLSPDARNILEKHSLDASQGTATGPRGIFTKEDALKLVQLKQTGK [A7D] showed an abundance fitness of -0.211 ± 0.11.
In the case of RFRLSPGARNILEKHSLDASQGTATGPRGIFTKEDALKLVQLKQTGK [A7G], the abundance fitness is reported as 0.06 ± 0.049.
In the case of RFRLSPHARNILEKHSLDASQGTATGPRGIFTKEDALKLVQLKQTGK [A7H], the abundance fitness is reported as -0.605 ± 0.15.
In the case of RFRLSPIARNILEKHSLDASQGTATGPRGIFTKEDALKLVQLKQTGK [A7I], the abundance fitness is reported as -0.263 ± 0.099.
For RFRLSPKARNILEKHSLDASQGTATGPRGIFTKEDALKLVQLKQTGK [A7K], the abundance fitness was -0.187 ± 0.046.
In the case of RFRLSPMARNILEKHSLDASQGTATGPRGIFTKEDALKLVQLKQTGK [A7M], the abundance fitness is reported as -0.396 ± 0.095.
Variant RFRLSPNARNILEKHSLDASQGTATGPRGIFTKEDALKLVQLKQTGK [A7N] has an abundance fitness of -0.432 ± 0.072.
For RFRLSPPARNILEKHSLDASQGTATGPRGIFTKEDALKLVQLKQTGK [A7P], the abundance fitness was -0.697 ± 0.082.
Work on RFRLSPQARNILEKHSLDASQGTATGPRGIFTKEDALKLVQLKQTGK [A7Q] yielded an abundance fitness of 0.062 ± 0.061.
